According to the supplement of paper PMC11246515:
± gives the standard deviation of the averaged measurements.

Experiment: total protein half-life in vivo (active degradation + dilution); higher = more stable protein
[1] = E. coli NCM3722 delta-hslV, growth: N-lim chemostat, doubling time 6 h
[2] = E. coli NCM3722 delta-smpB, growth: N-lim chemostat, doubling time 6 h
[3] = wild type E. coli NCM3722, growth: C-lim chemostat, doubling time 3 h
[4] = wild type E. coli NCM3722, growth: C-lim chemostat, doubling time 6 h
[5] = wild type E. coli NCM3722, growth: C-lim chemostat, doubling time 12 h
[6] = wild type E. coli NCM3722, growth: N-lim chemostat, doubling time 6 h
[7] = wild type E. coli NCM3722, growth: P-lim chemostat, doubling time 12 h
[8] = E. coli NCM3722 delta-clpP delta-lon delta-hslV, growth: N-lim chemostat, doubling time 6 h
[9] = E. coli NCM3722 delta-clpP, growth: N-lim chemostat, doubling time 6 h
[10] = E. coli NCM3722 delta-lon, growth: N-lim chemostat, doubling time 6 h
[11] = wild type E. coli NCM3722, growth: N-lim chemostat, doubling time 12 h
[12] = wild type E. coli NCM3722, growth: P-lim chemostat, doubling time 6 h

For “MKKLTIGLIGNPNSGKTTLFNQLTGSRQRVGNWAGVTVERKEGQFSTTDHQVTLVDLPGTYSLTTISSQTSLDEQIACHYILSGDADLLINVVDASNLERNLYLTLQLLELGIPCIVALNMLDIAEKQNIRIEIDALSARLGCPVIPLVSTRGRGIEALKLAIDRYKANENVELVHYAQPLLNEADSLAKVMPSDIPLKQRRWLGLQMLEGDIYSRAYAGEASQHLDAALARLRNEMDDPALHIADARYQCIAAICDVVSNTLTAEPSRFTTAVDKIVLNRFLGLPIFLFVMYLMFLLAINIGGALQPLFDVGSVALFVHGIQWIGYTLHFPDWLTIFLAQGLGGGINTVLPLVPQIGMMYLFLSFLEDSGYMARAAFVMDRLMQALGLPGKSFVPLIVGFGCNVPSVMGARTLDAPRERLMTIMMAPFMSCGARLAIFAVFAAAFFGQNGALAVFSLYMLGIVMAVLTGLMLKYTIMRGEATPFVMELPVYHVPHVKSLIIQTWQRLKGFVLRAGKVIIIVSIFLSAFNSFSLSGKIVDNINDSALASVSRVITPVFKPIGVHEDNWQATVGLFTGAMAKEVVVGTLNTLYTAENIQDEEFNPAEFNLGEELFSAIDETWQSLKDTFSLSVLMNPIEASKGDGEMGTGAMGVMDQKFGSAAAAYSYLIFVLLYVPCISVMGAIARESSRGWMGFSILWGLNIAYSLATLFYQVASYSQHPTYSLVCILAVILFNIVVIGLLRRARSRVDIELLATRKSVSSCCAASTTGDCH”, the “total protein half-life in vivo” value [1] was 0.616 h, the “total protein half-life in vivo” value [2] was 0.941 ± 0.47 h and the “total protein half-life in vivo” value [3] was 0.812 ± 0.12 h. For the same sequence, the “total protein half-life in vivo” value [4] was 0.749 h, the “total protein half-life in vivo” value [5] was 1.58 ± 0.19 h and the “total protein half-life in vivo” value [6] was 0.841 h. The “total protein half-life in vivo” value [7] was 4.22 h.
With “MLSTQFNRDNQYQAITKPSLLAGCIALALLPSAAFAAPATEETVIVEGSATAPDDGENDYSVTSTSAGTKMQMTQRDIPQSVTIVSQQRMEDQQLQTLGEVMENTLGISKSQADSDRALYYSRGFQIDNYMVDGIPTYFESRWNLGDALSDMALFERVEVVRGATGLMTGTGNPSAAINMVRKHATSREFKGDVSAEYGSWNKERYVADLQSPLTEDGKIRARIVGGYQNNDSWLDRYNSEKTFFSGIVDADLGDLTTLSAGYEYQRIDVNSPTWGGLPRWNTDGSSNSYDRARSTAPDWAYNDKEINKVFMTLKQQFADTWQATLNATHSEVEFDSKMMYVDAYVNKADGMLVGPYSNYGPGFDYVGGTGWNSGKRKVDALDLFADGSYELFGRQHNLMFGGSYSKQNNRYFSSWANIFPDEIGSFYNFNGNFPQTDWSPQSLAQDDTTHMKSLYAATRVTLADPLHLILGARYTNWRVDTLTYSMEKNHTTPYAGLVFDINDNWSTYASYTSIFQPQNDRDSSGKYLAPITGNNYELGLKSDWMNSRLTTTLAIFRIEQDNVAQSTGTPIPGSNGETAYKAVDGTVSKGVEFELNGAITDNWQLTFGATRYIAEDNEGNAVNPNLPRTTVKMFTSYRLPVMPELTVGGGVNWQNRVYTDTVTPYGTFRAEQGSYALVDLFTRYQVTKNFSLQGNVNNLFDKTYDTNVEGSIVYGTPRNFSITGTYQF” the “total protein half-life in vivo” value [3] was 3.33 ± 0.05 h and the “total protein half-life in vivo” value [5] was > 16 h.
With “MSSLSQAASSVEKRTNARYWIVVMLFIVTSFNYGDRATLSIAGSEMAKDIGLDPVGMGYVFSAFSWAYVIGQIPGGWLLDRFGSKRVYFWSIFIWSMFTLLQGFVDIFSGFGIIVALFTLRFLVGLAEAPSFPGNSRIVAAWFPAQERGTAVSIFNSAQYFATVIFAPIMGWLTHEVGWSHVFFFMGGLGIVISFIWLKVIHEPNQHPGVNKKELEYIAAGGALINMDQQNTKVKVPFSVKWGQIKQLLGSRMMIGVYIGQYCINALTYFFITWFPVYLVQARGMSILKAGFVASVPAVCGFIGGVLGGIISDWLMRRTGSLNIARKTPIVMGMLLSMVMVFCNYVNVEWMIIGFMALAFFGKGIGALGWAVMADTAPKEISGLSGGLFNMFGNISGIVTPIAIGYIVGTTGSFNGALIYVGVHALIAVLSYLVLVGDIKRIELKPVAGQ” the “total protein half-life in vivo” value [4] was 5.06 h.
For “MKRASLLTLTLIGAFSAIQAAWAVDYPLPPTGSRLVGQNQTYTVQEGDKNLQAIARRFDTAAMLILEANNTIAPVPKPGTTITIPSQLLLPDAPRQGIIVNLAELRLYYYPPGENIVQVYPIGIGLQGLETPVMETRVGQKIPNPTWTPTAGIRQRSLERGIKLPPVVPAGPNNPLGRYALRLAHGNGEYLIHGTSAPDSVGLRVSSGCIRMNAPDIKALFSSVRTGTPVKVINEPVKYSVEPNGMRYVEVHRPLSAEEQQNVQTMPYTLPAGFTQFKDNKAVDQKLVDKALYRRAGYPVSVSSGATPAASNAPSVESAQNGEPEQGNMLRVTQ”, the “total protein half-life in vivo” value [8] was 5.45 ± 0.37 h, the “total protein half-life in vivo” value [9] was 5.31 ± 0.28 h and the “total protein half-life in vivo” value [1] was 5.75 ± 0.64 h. The “total protein half-life in vivo” value [10] was 5.59 ± 0.22 h, the “total protein half-life in vivo” value [2] was 5.31 ± 0.5 h and the “total protein half-life in vivo” value [3] was 3.12 ± 0.47 h. For the same sequence, the “total protein half-life in vivo” value [4] was 6.04 ± 1.4 h, the “total protein half-life in vivo” value [5] was 12.4 ± 2.9 h and the “total protein half-life in vivo” value [6] was 5.2 ± 0.094 h. The “total protein half-life in vivo” value [11] was 9.08 ± 0.15 h, the “total protein half-life in vivo” value [12] was 5.28 ± 0.24 h and the “total protein half-life in vivo” value [7] was 11.2 ± 1.1 h.
For “MADVHDKATRSKNMRAIATRDTAIEKRLASLLTGQGLAFRVQDASLPGRPDFVVDEYRCVIFTHGCFWHHHHCYLFKVPATRTEFWLEKIGKNVERDRRDISRLQELGWRVLIVWECALRGREKLTDEALTERLEEWICGEGASAQIDTQGIHLLA”, the “total protein half-life in vivo” value [8] was 5.56 h, the “total protein half-life in vivo” value [9] was 4.58 ± 0.72 h and the “total protein half-life in vivo” value [1] was 3.63 ± 0.22 h. For the same sequence, the “total protein half-life in vivo” value [10] was 3.67 h, the “total protein half-life in vivo” value [2] was 4.35 ± 1.4 h and the “total protein half-life in vivo” value [4] was 4.16 h. The “total protein half-life in vivo” value [5] was 8.92 h, the “total protein half-life in vivo” value [6] was 3.98 ± 0.43 h and the “total protein half-life in vivo” value [11] was 5.45 ± 0.16 h. For the same sequence, the “total protein half-life in vivo” value [12] was 3.9 ± 0.41 h and the “total protein half-life in vivo” value [7] was 9.27 ± 3.3 h.
In the case of “MKEKPAVEVRLDKWLWAARFYKTRALAREMIEGGKVHYNGQRSKPSKIVELNATLTLRQGNDERTVIVKAITEQRRPASEAALLYEETAESVEKREKMALARKLNALTMPHPDRRPDKKERRDLLRFKHGDSE [P0ACG8]”, the “total protein half-life in vivo” value [8] is reported as 6.23 ± 0.21 h, the “total protein half-life in vivo” value [10] is reported as 5.39 h and the “total protein half-life in vivo” value [2] is reported as 3.67 h. For the same sequence, the “total protein half-life in vivo” value [3] was 2.91 h, the “total protein half-life in vivo” value [4] was 5.7 ± 1.5 h and the “total protein half-life in vivo” value [5] was 6.7 h. For the same sequence, the “total protein half-life in vivo” value [6] was 4.16 h, the “total protein half-life in vivo” value [11] was 6.59 h and the “total protein half-life in vivo” value [7] was 7.24 h.
